Experimental data published in patent publication US11497796B2, “Agents directed against a cis RGMa/neogenin interaction or lipid rafts and use of the same in methods of treatment” (UNIVERSITY HEALTH NETWORK, priority 2013, dated 2022).

What was measured:
[1] = tested on: photoreceptor cells; assay: Photoreceptor survival in rd1 mice (retinitis pigmentosa model); format: in vivo, mouse
Procedure: The rd1 mouse model is a model for human RP and carried a loss-of-function mutation in the gene encoding for the β-subunit of the rod photoreceptor cGMP phosphodiesterase-6.2. This loss-of-function mutation led to an accumulation of cGMP, which caused photoreceptor cell death.
In these studies, intraocular injection of the 4Ig (2 μg/μl) peptide at P9 and P15 was performed and animals were sacrificed at P21 to examine cell survival. […] Injection of 4Ig increased outer nuclear layer (ONL) thickness to about 6 cells (FIG. 19). This measurement was the average thickness of the ONL.
As described above, cholesterol depletion removes lipid rafts. Specifically, mice were treated with daily […] (IP) injections of MβCD from P9 to P21.
To examine the effect of reducing cholesterol synthesis on cell survival, AY-9944 was examined in rd1 mice (FIGS. 20 and 21). Rd1 mice were treated using two intra-peritoneal injections of AY-9944, at P9 and P15 and sacrificed at P21.

[2] = tested on: EAE paralysis; assay: EAE mouse model of multiple sclerosis; format: in vivo; settings: 3 μg IV at days 3, 6, 9; after 17 days; control approaching 5
Procedure: Specifically, whether or not 4Ig reduced paralysis in the EAE model was tested. To induce EAE, C57BL6/J mice were injected with an emulsion of MOGp35-55 peptide (50 μg, day 0) mixed with complete Freund's adjuvant (CFA). On day 2, the animals also received 400 ng of pertussis toxin (PTX) intraperitoneally in order to produce severe and reliable EAE and then were examined for clinical signs in over a 17 day period (FIG. 28).
At days 3, 6, and 9 post-EAE induction, animals were treated with either 3 μg of 4Ig in PBS (IV injection) or PBS (Control).

[3] = tested on: retinal whole mounts; assay: Oxygen Glucose Deprivation (OGD) in retinal whole mounts, PI staining; format: cell-based; settings: OGD in presence of 4Ig
Procedure: Specifically, retinal whole mounts were subjected to OGD for 1 hour. After ischemia, whole mounts were incubated for 24 hours and dead cells were identified using propidium iodide (PI) staining.
To determine whether Neogenin required lipid raft association to induce cell death, OGD was performed on retinal whole mounts in the presence of 4Ig, which as described above, prevented Neogenin localization into lipid rafts.

[4] = tested on: brain after stroke; assay: Cerebral focal ischemia model (MCA clot occlusion); format: in vivo, rat; settings: daily injections
Procedure: In all experiments, female Sprague-Dawley rats weighing 200-250 g were used. Briefly, focal cerebral ischemia was induced by injection of a preformed clot into the MCA. The rats were initially anesthetized with 3.0% isoflurane and then maintained with 1.5% isoflurane in a mixture of 30:70 O2 and […] with a face mask during surgery. Body temperature was maintained at 37° C. in the normothermic rats with a heating pad for the duration of surgery and in the immediate postoperative period until the animal was fully recovered from anesthesia.
A 1.5-cm longitudinal incision was made in the midline of the ventral cervical skin. The right common carotid artery (CCA), right internal carotid artery (ICA), and right external carotid artery (ECA) were exposed. The distal portion of the ECA was ligated and cut. A modified polyethylene-10 catheter, filled with bovine thrombin (Thrombostat, TM Warner-Lambert Co.), was introduced into the lumen of the right ECA via a small puncture. Ten micro liters of blood was withdrawn into the catheter and retained for 15 minutes to allow formation of a clot. […] After returning to their cage, animals were monitored for normal recovery.
The infarct volume was expressed as a percentage of the total volume from the ipsilateral hemisphere. Brain edema was determined by calculating the volume difference between the 2 hemispheres and dividing by the volume of the left hemisphere.
Briefly, 7 days after MCA occlusion the anesthetized rats were killed. […] The images were analyzed and the determination of infarct volume and edema was blinded. The infarct volume was calculated using the following formula: Infarct volume=[left hemisphere volume−(the right hemisphere volume−measured infarct volume)]/left hemisphere volume.
Brain swelling was determined using the following formula: Swelling (edema)=(right hemisphere volume−left hemisphere volume)/left hemisphere volume. […]
Briefly, neurological deficits were determined using a modified Bederson's scoring system. […] Mortality was also recorded. […]

[5] = intraocular injection at P9 and P15

Molecule	average depth of the ONL ([1]; daily injections P9 to P21)	increase in the average thickness of the ONL ([1]; daily injections P9 to P21)	photoreceptor survival ([1]; daily injections P9 to P21)	number of rods within the Outer Nuclear Layer (anti-Rhodopsin) ([1]; injected at P9, P21)	outer nuclear layer (ONL) thickness ([1]; intraocular injection 2 μg/μl at P9 and P15, P21, control about 2 cells)	increase of ONL thickness compared to control mice [1, 5]	number of photoreceptors within the retina vs control [1, 5]	clinical score [2]	reduction of the number of dead neurons compared to controls [3]	brain edema compared to control [4]	infarct volume compared to control [4]	behavioral deficits compared to control ([4]; Bederson test)
methyl-β-cyclodextrin [MβCD, reference compound]	about 6 cells	three-fold	photoreceptor survival was improved	dramatic increase in the number of rods	–	–	–	–	–	–	–	–
4Ig: four immunoglobulin-like domains of Neogenin, amino acids 1 to 383 of Accession No. AAC59662 (SEQ ID NO:1) (protein, listed as Gallus gallus, Neogenin - Accession No. AAC59662) RSGPRSPLTGSVVRTFTPFYFLVEPMDILSVRGASVIMNCSSYCETPPKIEWKKDGTLLNLVSDDRRQLLPDGSLLINSVVHSKHNKPDEGYYQCVATVESLGSIVSRTAKLTVAGLPRFTSQPELSSVYKGNSAILNCEVNVDLAPFVRWEQDRQPLSLDDRVFKLPSGALLIGNATDTDGGFYRCVIESGGTPKYSEEAELKILPDPEEPQSLVFVRQPSSLTKVTGQNAVFPCVAGGFPTPYVRWTKNGEELITEDSERFALRAGGSLLISDVTEEDVGTYTCIADNENETIEAQAELAVQVPPEFLKRPANIYAHESMDIVFECEVTGKPTPTVKWVKNGDVVIPSDYFKIVKEHNLQVLGLVKSDEGFYQCIAENDVGNAQAGAQLIILDLDVAIPTLPPTSLTSATNDHLAPATTGPLPTAPRDVVATLVSTRFIRLTWRTPVSDPQGDNLTYSIFYTKEGINRERVENTSRPGETQVMIQNLMPETVYVFRVVAQNKHGHGESSAPLKVATQPEVQLPGPAPNIRAYAGSPTSVTVTWETPLSGNGEIQNYKLYYMEKGQDSEQDVDVAGLSYTITGLKKYTEYSFRVVAYNKHGPGVSTQDVVVRTLSDVPSAAPQNLTLEARNSKSIMLHWQPPPAGTHSGQITGYKIRYRKVSRKSDVTESVGGTQLFQLIEGLERGTEYNFRIAAMTVNGTGPATDWVSAETFESDLDESRVPEVPSSLHVRPLVTSIVVSWTPPENQNIVVRGYAIGYGIGSPHAQTIKVDYKQRYYTIENLDPSSHYVITLKAFNNVGEGIPLYESAVTRPHSDTSEVDLFVINAPYTPVPDPSPMMPPVGVQASILSHDTIRITWADNSLPKNQKITDARYYTVRWKTNIPANTKYKTANATTLSYLVTGLKPNTLYEFSVMVTKGRRSSTWSMTAHGTTFELVPTSPPKDVTVVSKEGKPRTIIVNWQPPSEANGKITGYIIYYSTDVNAEIHDWVIEPVVGNRLTHQIQELTLDTPYYFKIQARNSKGMGPMSEAVQFRTPKAESSDKMPNDQASGSAGKGSRPVDVGPDYKPPLSGSNSPHGSPTSPLDSNMLLVIIVSVGVITIVIVVIVAVFCTRRTTSHQKKKRAACKSVNGSHKYKGNSKDVKPPDLWIHHERLELKPIDKSPDPNPIMTDTPIPRNSQDITPVDNSMDSNIHQRRNSYRGHESEDSMSTLAGRRGMRPKMMMPFDSQPPQPVISAHPIHSLDNPHHHFHSGSLASPTRSYLHHQVSPWPVGTSMSHSDRANSTESVRNTPSSDTMPASSSQPCADHQDPDSSSGAYLGSAQEEDAAQSLPTAHVRPSHPLKSFAVPAVPAAGSAYDPTLPSTPLLTQQAPSHPVHSVKTASIGTLGRTRPPMPVVVPSAPDVQETTRMLEDSESSYEPDELTKEMAHLEGLMKDLNAITTA	–	–	–	–	about 6 cells	more than three-fold	significantly improved the number of photoreceptors	1.4	two-fold	significantly reduced	significantly reduced	significantly reduced
